Assay results from patent publication US20210214414A1 (Pfizer, published 2021).

Assays:
Rabbit SLIT2-N = target: T1, Rabbit SLIT2-N (rabbit, UniProt G1TMD3 31-1121); test: HTRF competition: d2-labelled rabbit SLIT2-N binding to human ROBO2 on HEK293 cells; geometric mean, n=3
T1 construct: domain: SLIT2-N; d2-labelled in the HTRF assay
T1 sequence: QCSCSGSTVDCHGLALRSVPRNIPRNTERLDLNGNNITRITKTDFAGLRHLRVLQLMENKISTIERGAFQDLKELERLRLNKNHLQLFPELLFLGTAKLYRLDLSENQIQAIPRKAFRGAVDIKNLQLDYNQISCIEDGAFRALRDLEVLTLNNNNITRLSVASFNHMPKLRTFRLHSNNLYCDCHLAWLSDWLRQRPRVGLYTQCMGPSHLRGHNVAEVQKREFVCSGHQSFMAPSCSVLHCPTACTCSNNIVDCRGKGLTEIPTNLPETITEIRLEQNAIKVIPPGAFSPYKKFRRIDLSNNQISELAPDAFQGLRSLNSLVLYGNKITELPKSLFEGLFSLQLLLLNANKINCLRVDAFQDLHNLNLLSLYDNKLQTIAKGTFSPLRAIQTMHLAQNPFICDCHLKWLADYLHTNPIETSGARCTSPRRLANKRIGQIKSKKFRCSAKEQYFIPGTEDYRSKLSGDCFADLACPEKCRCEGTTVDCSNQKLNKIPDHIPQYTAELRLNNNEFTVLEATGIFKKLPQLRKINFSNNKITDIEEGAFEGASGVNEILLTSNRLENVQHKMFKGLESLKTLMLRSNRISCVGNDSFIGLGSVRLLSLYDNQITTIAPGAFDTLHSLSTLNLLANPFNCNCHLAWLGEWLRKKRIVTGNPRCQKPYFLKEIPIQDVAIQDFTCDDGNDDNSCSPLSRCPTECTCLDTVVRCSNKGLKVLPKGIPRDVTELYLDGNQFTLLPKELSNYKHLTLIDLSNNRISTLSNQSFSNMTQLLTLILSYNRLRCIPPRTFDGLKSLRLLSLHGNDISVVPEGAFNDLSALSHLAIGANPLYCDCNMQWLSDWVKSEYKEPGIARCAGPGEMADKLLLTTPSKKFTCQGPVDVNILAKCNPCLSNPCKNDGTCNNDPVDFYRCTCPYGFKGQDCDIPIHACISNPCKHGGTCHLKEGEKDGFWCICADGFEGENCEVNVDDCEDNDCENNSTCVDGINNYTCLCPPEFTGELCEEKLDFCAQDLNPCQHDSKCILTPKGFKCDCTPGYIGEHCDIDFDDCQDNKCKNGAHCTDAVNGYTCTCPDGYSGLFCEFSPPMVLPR
Experimental: After incubation, fluorescence at 665 nm and 620 nm was measured on an Envision multilabel plate reader. The HTRF Ratio was calculated as follows: fluorescence at 665 nm/fluorescence at 620 nm×10,000. […] The IC₅₀ for each SLITx-N was determined using an 11-point, 4-fold dilution series with a top concentration of 4000 nM.

Human SLIT2-N = target: T2, Human SLIT2-N (human, UniProt O94813 31-1121, limits assumed); test: flow cytometry, AF647-labelled ROBO2-Fc 2.2 on HEK293 cells overexpressing human SLIT2-N
T2 construct: domain: SLIT2-N (N terminal fragment); Soluble analyte in SPR, d2-labelled in HTRF, overexpressed on HEK293 cells in flow cytometry; also called human SLIT2-N (N terminal fragment)
T2 sequence (looked up): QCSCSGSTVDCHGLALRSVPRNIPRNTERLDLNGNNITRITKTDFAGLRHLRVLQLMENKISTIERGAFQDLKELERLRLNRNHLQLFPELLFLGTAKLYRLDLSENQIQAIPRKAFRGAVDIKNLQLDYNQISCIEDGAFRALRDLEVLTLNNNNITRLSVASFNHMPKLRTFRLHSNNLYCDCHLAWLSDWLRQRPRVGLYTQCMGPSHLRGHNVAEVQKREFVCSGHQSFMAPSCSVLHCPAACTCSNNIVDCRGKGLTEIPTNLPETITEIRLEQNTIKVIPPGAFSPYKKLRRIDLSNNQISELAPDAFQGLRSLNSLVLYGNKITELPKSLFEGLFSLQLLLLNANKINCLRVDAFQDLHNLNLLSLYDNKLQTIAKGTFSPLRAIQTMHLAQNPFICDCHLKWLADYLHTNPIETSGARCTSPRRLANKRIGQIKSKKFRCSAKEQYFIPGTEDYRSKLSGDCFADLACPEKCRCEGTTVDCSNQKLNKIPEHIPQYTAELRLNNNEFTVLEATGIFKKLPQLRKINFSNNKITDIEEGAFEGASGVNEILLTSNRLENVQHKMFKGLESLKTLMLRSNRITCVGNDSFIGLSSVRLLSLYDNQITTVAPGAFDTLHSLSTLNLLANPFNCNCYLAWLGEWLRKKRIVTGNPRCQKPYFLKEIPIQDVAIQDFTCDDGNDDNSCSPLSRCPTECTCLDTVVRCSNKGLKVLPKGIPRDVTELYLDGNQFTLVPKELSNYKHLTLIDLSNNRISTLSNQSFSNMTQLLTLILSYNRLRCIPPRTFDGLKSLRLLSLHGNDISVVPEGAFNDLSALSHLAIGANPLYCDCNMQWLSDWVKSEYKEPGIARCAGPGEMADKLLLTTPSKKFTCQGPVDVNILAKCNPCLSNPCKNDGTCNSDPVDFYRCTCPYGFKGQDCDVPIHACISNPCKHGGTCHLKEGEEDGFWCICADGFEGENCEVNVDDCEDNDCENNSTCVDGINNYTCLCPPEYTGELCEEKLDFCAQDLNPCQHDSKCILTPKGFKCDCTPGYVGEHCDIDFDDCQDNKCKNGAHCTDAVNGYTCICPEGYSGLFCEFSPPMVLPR
Experimental: After incubation, 150 μL of FACS buffer was added per well to wash the cells. After washing, cells were resuspended in buffer for data acquisition on a Fortessa Flow Cytometer.

IC50 (Rabbit SLIT2-N): 5.7 nM
EC50 (Human SLIT2-N): 8.6 nM
B1: ROBO2-Fc 2.2 (Fc fusion)
chain: SRLRQEDFPPRIVEHPSDVIVSKGEPTTLNCKAEGRPTPTIEWYKDGERVETDKDDPRSHRMLLPSGSLFFLRIVHGRRSKPDEGSYVCVARNYLGEAVSRNASLEVALLRDDFRQNPTDVVVAAGEPAILECQPPRGHPEPTIYWKKDKVRIDDKEERISIRGGKLMISNTRKSDAGMYTCVGTNMVGERDSDPAELTVFERGGSGGSEPKSSDKTHTCPPCPAPEAAGAPSVFLFPPKPKDTLMISRTPEVTCVVVDVSHEDPEVKFNWYVDGVEVHNAKTKPREEQYNSTYRVVSVLTVLHQDWLNGKEYKCKVSNKALPAPIEKTISKAKGQPREPQVYTLPPSREEMTKNQVSLTCLVKGFYPSDIAVEWESNGQPENNYKTTPPVLDSDGSFFLYSKLTVDKSRWQQGNVFSCSVMHEALHNHYTQKSLSLSPG
notes: Labelled with Alexa Fluor 647 in the flow cytometry assay; also called ROBO-Fc 2.2; ROBO2-Fc 2.2-AF647
